{
  "source": "paper PMC7672607",
  "test_in_all_cases": "flow cytometry on cells; K562/HLA-F*01:0x cells stripped of bound peptides with citrate phosphate buffer, with or without 200 µM HBB peptide (4 h, 37 °C, serum-free medium); Fc-block 20 min 4 °C; KIR3DS1-Fc 25 µg/mL, 40 min, 4 °C; detected with goat anti-human IgG Fc PE; n = 3",
  "key": {"[1]": {"biological_target": "HLA-F*01:01 on K562 cells loaded with the HBB peptide … (human | human (endogenous in K562))"}, "[2]": {"biological_target": "HLA-F*01:03 on K562 cells loaded with the HBB peptide … (human | human (endogenous in K562))"}, "[3]": {"biological_target": "HLA-F*01:04 on K562 cells loaded with the HBB peptide … (human | human (endogenous in K562))"}},
  "data": [
    {"substance": "recombinant KIR3DS1-Fc chimeric protein (from UniProt Q14943 22-340) (Fc fusion)", "values": [
      {"measurement": "percent decrease of KIR3DS1 binding against the same cells without HBB peptide", "setting": "[1]", "value": 36.2, "unit": "%"},
      {"measurement": "percent decrease of KIR3DS1 binding against the same cells without HBB peptide", "setting": "[2]", "value": 27.9, "unit": "%"},
      {"measurement": "percent decrease of KIR3DS1 binding against the same cells without HBB peptide", "setting": "[3]", "value": 16.5, "unit": "%"}
    ]}
  ]
}
